Source: patent publication US20100226974A1 (MITSUBISHI PHARMA, published 2010)

Target: T1, human non-muscular myosin heavy chain type A (human, UniProt P35579 2-1960)
T1 construct: also called nmMHCA; human non-muscular myosin A chain
Assay: flow cytometry, FITC-labeled antibody at 20 ug/ml on intact MKN45 cells, mean channel number of FL1
Procedure: Cultured cells of MKN45 or cells of a solid tumor (hereinafter referred to as “tumor cells”) formed by subcutaneous transplantation of MKN45 were allowed to react with the GAH antibody described in EP-A-520499 and EP-A-1174126, which had been labeled with fluorescein isothiocyanate (FITC: Sigma), in a concentration of 20 μg/ml at 4° C. for 1 hour, and then washed once with phosphate buffered saline (PBS). Analysis was carried out in PBS containing propidium iodide (PI: Sigma) using a flow cytometer (FACScan: Becton Dickinson). PI-positive cells, namely dead cells, were excluded from the subject of analysis by gating operation. By calculating the mean channel number of FL1 as an index of FITC fluorescence intensity, comparison of the cultured cells and tumor cells of MKN45 was carried out.

T1 sequence (P35579 2-1960 limits assumed): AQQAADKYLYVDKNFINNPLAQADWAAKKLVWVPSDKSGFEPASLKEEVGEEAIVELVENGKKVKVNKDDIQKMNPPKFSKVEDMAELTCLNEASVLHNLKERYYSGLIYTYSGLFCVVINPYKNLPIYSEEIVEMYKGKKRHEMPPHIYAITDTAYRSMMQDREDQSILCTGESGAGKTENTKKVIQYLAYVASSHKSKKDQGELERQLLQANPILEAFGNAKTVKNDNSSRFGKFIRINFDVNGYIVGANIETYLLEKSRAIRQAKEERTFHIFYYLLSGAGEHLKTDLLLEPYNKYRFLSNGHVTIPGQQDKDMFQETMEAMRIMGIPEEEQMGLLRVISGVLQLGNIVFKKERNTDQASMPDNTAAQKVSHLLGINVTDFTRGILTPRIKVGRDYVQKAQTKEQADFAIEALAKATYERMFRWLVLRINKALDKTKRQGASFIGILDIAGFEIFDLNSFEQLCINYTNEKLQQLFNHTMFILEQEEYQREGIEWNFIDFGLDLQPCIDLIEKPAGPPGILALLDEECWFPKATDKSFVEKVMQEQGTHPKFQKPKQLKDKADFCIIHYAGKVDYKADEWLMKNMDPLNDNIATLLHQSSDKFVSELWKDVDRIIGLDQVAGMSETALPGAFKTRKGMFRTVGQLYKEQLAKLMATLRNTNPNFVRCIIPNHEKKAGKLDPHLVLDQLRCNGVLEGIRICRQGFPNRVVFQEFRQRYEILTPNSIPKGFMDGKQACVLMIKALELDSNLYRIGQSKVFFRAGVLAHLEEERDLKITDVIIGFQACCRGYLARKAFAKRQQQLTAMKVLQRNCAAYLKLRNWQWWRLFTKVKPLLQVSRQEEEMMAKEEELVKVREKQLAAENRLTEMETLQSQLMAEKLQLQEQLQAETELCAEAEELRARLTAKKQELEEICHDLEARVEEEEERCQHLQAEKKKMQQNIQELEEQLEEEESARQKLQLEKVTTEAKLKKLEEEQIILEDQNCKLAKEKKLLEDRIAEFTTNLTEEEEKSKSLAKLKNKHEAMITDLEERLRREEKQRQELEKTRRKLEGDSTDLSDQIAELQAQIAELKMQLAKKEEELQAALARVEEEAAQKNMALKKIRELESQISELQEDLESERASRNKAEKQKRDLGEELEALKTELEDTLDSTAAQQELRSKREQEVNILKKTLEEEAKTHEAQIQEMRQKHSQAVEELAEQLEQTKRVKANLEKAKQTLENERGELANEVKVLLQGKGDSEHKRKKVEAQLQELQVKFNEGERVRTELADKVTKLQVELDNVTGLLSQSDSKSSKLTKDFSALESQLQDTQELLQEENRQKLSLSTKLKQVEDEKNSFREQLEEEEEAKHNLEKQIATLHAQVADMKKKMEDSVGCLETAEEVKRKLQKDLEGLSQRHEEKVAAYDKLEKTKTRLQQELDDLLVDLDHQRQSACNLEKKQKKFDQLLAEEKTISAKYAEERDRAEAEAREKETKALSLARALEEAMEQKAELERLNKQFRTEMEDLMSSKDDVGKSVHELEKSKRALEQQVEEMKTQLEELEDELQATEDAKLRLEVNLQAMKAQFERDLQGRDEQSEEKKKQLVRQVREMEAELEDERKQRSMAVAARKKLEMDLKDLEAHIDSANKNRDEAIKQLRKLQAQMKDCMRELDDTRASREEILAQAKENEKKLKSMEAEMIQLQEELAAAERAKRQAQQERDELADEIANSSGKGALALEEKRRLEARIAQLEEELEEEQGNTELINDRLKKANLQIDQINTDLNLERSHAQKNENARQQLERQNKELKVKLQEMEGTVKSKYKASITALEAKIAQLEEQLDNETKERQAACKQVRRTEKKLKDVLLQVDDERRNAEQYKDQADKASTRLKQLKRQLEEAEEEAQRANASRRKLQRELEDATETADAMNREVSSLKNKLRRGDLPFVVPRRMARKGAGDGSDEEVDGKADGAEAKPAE

fold reactivity, tumor cells against cultured cells of MKN45: ~18 times
B1: GAH antibody (human monoclonal antibody disclosed in EP-A-520499) (antibody, V domains shown)
VH: QVQLQESGPGLVKPSQTLSLTCTVSGGSISSCGFYWNWIRQHPGKGLEWIGYIYYSGSTYYNPSLKSRVTISLDTSKSQFSLKLSSLTAADTAVYYCARSTRLRGADYWGQGTMVTVSS
VL: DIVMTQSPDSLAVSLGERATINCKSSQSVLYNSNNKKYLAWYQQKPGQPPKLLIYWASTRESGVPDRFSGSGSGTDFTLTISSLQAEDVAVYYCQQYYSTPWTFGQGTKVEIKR
